According to paper PMC11268888:

Molecular target: soluble head domain of CDV-H (canine distemper virus hemagglutinin), Kyoto Biken vaccine strain, mad (canine distemper virus (Kyoto Biken vaccine strain))
Test: SEC + other: non-reducing SDS-PAGE

## soluble head domain of CDV-H (canine distemper virus hemagglutinin), Kyoto Biken vaccine strain, mad (domain or fragment)
  stoichiometry N: 2
